Data from the RNAGym collection of RNA variant scans (doi:10.7554/elife.80360).

B1: CPEB3 Ribozyme (parent)
chain: GGGGGCCACAGCAGAAGCGUUCACGUCGCGGCCCCUGUCAGAUUCUGGUGAAUCUGCGAAUUCUGCUGU

Variants of: B1
Test: self-cleavage, relative activity (ratio to wild type); higher = more cleavage; co-transcriptional

Variant	self-cleavage
C33A G50A	0.938
C33A G50C	0.92
C33U G56U	0.963
C33U G56C	0.849
C33U G56A	0.949
C33G U55A	0.571
C33G U55G	0.38
C33G G56C	0.326
C34A G37U	0.26
C34A G37A	0.301
C34A A52C	0.597
C34A A52G	0.497
C33U C57U	0.345
C33G G41U	0.268
C34G G65U	0.325
C34G G65C	0.331
C34A C54U	0.69
C33A G48U	0.929
C33A G48C	0.898
C34G C45G	0.604
C34G C45A	0.641
C34G C45U	0.746
C34A C39G	0.538
C34A C39U	0.467

Variant	self-cleavage
C33G C45A	0.47
C33G C45U	0.641
C33G C45G	0.537
C34G A42C	0.317
C33U G41U	0.821
C33U G41C	0.728
C34A G41U	0.339
C34A G41C	0.33
C34A G41A	0.341
C33U A42U	0.953
C33U A42C	0.793
C33U A42G	0.916
C33G U62A	0.391
C33G U62G	0.374
C33A G68A	0.951
C33A G68U	0.904
C34A C35U	0.226
C34A C35G	0.177
C33A U38G	0.212
C33A C35A	0.151
C33A C35U	0.442
C33A C35G	0.204
C33A U49A	0.965
C33A U49C	0.926

Variant	self-cleavage
C33A U49G	0.981
C32U U64G	1.01
C33U A59C	0.706
C33U A59G	0.959
C33U A59U	0.8
C33G C39U	0.337
C33G C39G	0.513
C33G C39A	0.387
C33G G47U	0.682
C33G G47A	0.663
C33G G47C	0.638
C33U G50A	0.979
C33U G50C	1
C33U U44G	0.945
C33G G68A	0.922
C34G U36G	0.263
C34G U36C	0.819
C33U C63U	0.936
C33U C63G	0.82
C33U C63A	0.795
C34A G65A	0.617
C34A G65U	0.57
C34A C66G	0.667
C34A C66U	0.874

Variant	self-cleavage
C33A G56U	0.756
C33A G56C	0.488
C33A U62A	0.566
C34A A51G	0.469
C34G U46A	0.776
C34A A59U	0.436
C34A A59G	0.609
C33U C34A	0.413
C33U C34U	0.825
C34G A52U	0.661
C33A A40G	0.748
C33U A60U	0.505
C33U A60G	0.814
C34G C39A	0.394
C33A U44C	0.656
C33A U44A	0.313
C33A U44G	0.374
C33U U64A	0.919
C33U U64G	0.941
C33U U64C	0.92
C33U C35G	0.396
C33U C35U	0.884
C33U C54U	0.949
C33G U49A	0.748

Variant	self-cleavage
C33G U49C	0.645
C33U U55A	0.965
C33U U36C	0.874
C33U U36G	0.295
C34A C63U	0.817
C34A C63A	0.495
C34A C63G	0.411
C33U G47A	0.972
C33U G47U	0.985
C33U G47C	0.969
C33A G41A	0.349
C33A G41U	0.562
C32U U61C	0.856
C32U U61G	0.829
C33U G48U	1.03
C33U G48A	1
C33U G48C	0.998
C33A C63G	0.513
C34A G58A	0.656
C33G A51U	0.415
C33G A51G	0.739
C33U U49A	0.97
C33U U49C	1.02
C33U U49G	0.996

Variant	self-cleavage
C33G G65U	0.376
C33G G65C	0.424
C33G G65A	0.511
C33G U67C	0.777
C33A U43C	0.461
C33A U43G	0.361
C32U U67A	0.987
C33A C66G	0.665
C33A C66A	0.76
C33A C66U	0.901
C34G C66G	0.434
C34G G37U	0.171
C34G G37A	0.24
C33A U36C	0.785
C33A U36A	0.157
C33A U36G	0.256
C34G G68C	0.842
C34G G68U	0.929
C34G C57G	0.332
C34A A40G	0.788
C34A A40U	0.468
C33G C57U	0.316
C33G C57G	0.259
C33G C57A	0.38

Variant	self-cleavage
C33G U69A	0.82
C33G U69G	0.899
C33G U64A	0.638
C33G U64C	0.484
C33G U64G	0.395
C33G G50U	0.578
C33G G50C	0.661
C33G G50A	0.687
C33G C54U	0.727
C33G C54G	0.338
C34G G47A	0.769
C34G G47C	0.724
C34G G47U	0.605
C33G U36G	0.25
C33G U36A	0.13
C34G U38A	0.733
C33A A59C	0.322
C33G C66U	0.649
C33G C66A	0.526
C33U C39A	0.866
C33G G58C	0.703
C33G G58U	0.821
C33U C66G	0.921
